According to patent US20250099587A1 (KELONIA THERAPEUTICS, published 2025):

T1: recombinant, phycoerythrin (PE) labeled, BCMA extracellular domain-FC fusion protein (Homo sapiens (Human), UniProt Q02223 1-54, phycoerythrin (PE) label)
T1 construct: The whole entry is named here; only the extracellular domain stood in the assay; also called BCMA-PE; not shown: Fc part of the staining reagent
T1 sequence: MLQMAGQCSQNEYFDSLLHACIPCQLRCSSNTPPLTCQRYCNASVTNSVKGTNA

B1: anti-BCMA CAR of recombinant lentivirus LV 1 (SEQ ID NO: 256) (receptor)
chain: EIVLTQSPATLSLSPGERATLSCRASQSVSSYLAWYQQKPGQAPRLLIYDASNRATGIPARFSGSGSGTDFTLTISSLEPEDFAVYYCQQRVVYPITFGGGTKVEIKGGGGSGGGGSGGGGSGGGGSQITLKESGPTLVKPTQTLTLTCTFSGFSLSTSGVGVGWIRQPPGKALEWLALIYWNDEKRYSPSLKSRLTITKDTSKNQVVLTMTNMDPVDTAVYYCARDEYGGFDIWGQGTMVTVSSTTTPAPRPPTPAPTIASQPLSLRPEACRPAAGGAVHTRGLDFACDIYIWAPLAGTCGVLLLSLVITLYCKRGRKKLLYIFKQPFMRPVQTTQEEDGCSCRFPEEEEGGCELRVKFSRSADAPAYQQGQNQLYNELNLGRREEYDVLDKRRGRDPEMGGKPRRKNPQEGLYNELQKDKMAEAYSEIGMKGERRRGKGHDGLYQGLSTATKDTYDALHMQALPPR
B2: anti-BCMA CAR of recombinant lentivirus LV 2 (SEQ ID NO: 258) (receptor)
chain: EIVLTQSPATLSLSPGERATLSCRASQSVSSYLAWYQQKPGQAPRLLIYDASNRATGIPARFSGSGSGTDFTLTISSLEPEDFAVYYCQQRFDYPITFGGGTKVEIKGGGGSGGGGSGGGGSGGGGSQITLKESGPTLVKPTQTLTLTCTFSGFSLSTSGVGVGWIRQPPGKALEWLALIYWNDDKRYSPSLKSRLTITKDTSKNQVVLTMTNMDPVDTAVYYCARDEYGGFDIWGQGTMVTVSSTTTPAPRPPTPAPTIASQPLSLRPEACRPAAGGAVHTRGLDFACDIYIWAPLAGTCGVLLLSLVITLYCKRGRKKLLYIFKQPFMRPVQTTQEEDGCSCRFPEEEEGGCELRVKFSRSADAPAYQQGQNQLYNELNLGRREEYDVLDKRRGRDPEMGGKPRRKNPQEGLYNELQKDKMAEAYSEIGMKGERRRGKGHDGLYQGLSTATKDTYDALHMQALPPR
B3: anti-BCMA CAR of recombinant lentivirus LV 15 (SEQ ID NO: 279) (receptor)
chain: EVQLLESGGGLVQPGGSLRLSCAASGFTFDSYTMSWYRQAPGKERELVSAISGHGDSTYYADSVKGRFTISRDNSKNTLYLQMNSLRAEDTAVYYCTRISITTEWLAGDYWGQGTQVTVSSTTTPAPRPPTPAPTIASQPLSLRPEACRPAAGGAVHTRGLDFACDIYIWAPLAGTCGVLLLSLVITLYCKRGRKKLLYIFKQPFMRPVQTTQEEDGCSCRFPEEEEGGCELRVKFSRSADAPAYQQGQNQLYNELNLGRREEYDVLDKRRGRDPEMGGKPRRKNPQEGLYNELQKDKMAEAYSEIGMKGERRRGKGHDGLYQGLSTATKDTYDALHMQALPPR
B4: anti-BCMA CAR of recombinant lentivirus LV 9 (SEQ ID NO: 273) (receptor)
chain: EVQLLESGGGLVQPGGSLRLSCAASGFTFGSEAMSWVRQAPGKERELVSAISGSGEVTYYADSVKGRFTISRDNSKNTLYLQMNSLRAEDTAVYYCQRLVEAKRHWGQGTQVTVSSTTTPAPRPPTPAPTIASQPLSLRPEACRPAAGGAVHTRGLDFACDIYIWAPLAGTCGVLLLSLVITLYCKRGRKKLLYIFKQPFMRPVQTTQEEDGCSCRFPEEEEGGCELRVKFSRSADAPAYQQGQNQLYNELNLGRREEYDVLDKRRGRDPEMGGKPRRKNPQEGLYNELQKDKMAEAYSEIGMKGERRRGKGHDGLYQGLSTATKDTYDALHMQALPPR
notes: also called LV 9.1 to LV 9.9
B5: anti-BCMA CAR of recombinant lentivirus LV 8 (SEQ ID NO: 270) (receptor)
chain: DIQMTQSPSSLSASVGDRVTITCQASQDIANYLNWYQQKPGKAPKLLIYDASNLETGVPSRFSGSGSGTDFTFTISSLQPEDIATYYCQQHFNLPLTFGGGTKVEIKGGGGSGGGGSGGGGSGGGGSQITLKESGPTLVKPTQTLTLTCTFSGFSLSTSGVGVGWIRQPPGKALEWLALIYWNDEKRYSPSLKSRLTITKDTSKNQVVLTMTNMDPVDTAVYYCAREGSHDYKSSNWFDPWGQGTLVTVSSTTTPAPRPPTPAPTIASQPLSLRPEACRPAAGGAVHTRGLDFACDIYIWAPLAGTCGVLLLSLVITLYCKRGRKKLLYIFKQPFMRPVQTTQEEDGCSCRFPEEEEGGCELRVKFSRSADAPAYQQGQNQLYNELNLGRREEYDVLDKRRGRDPEMGGKPRRKNPQEGLYNELQKDKMAEAYSEIGMKGERRRGKGHDGLYQGLSTATKDTYDALHMQALPPR
notes: also called LV 8.1 to LV 8.9
B6: anti-BCMA CAR of recombinant lentivirus LV 12 (SEQ ID NO: 276) (receptor)
chain: EVQLLESGGGLVQPGGSLRLSCAASGFTFEDYAMSWFRQAPGKEREGVSAISGKGGSTYYADSVKGRFTISRDNSKNTLYLQMNSLRAEDTAVYYCAVLDEEAGAEGGYWGQGTQVTVSSTTTPAPRPPTPAPTIASQPLSLRPEACRPAAGGAVHTRGLDFACDIYIWAPLAGTCGVLLLSLVITLYCKRGRKKLLYIFKQPFMRPVQTTQEEDGCSCRFPEEEEGGCELRVKFSRSADAPAYQQGQNQLYNELNLGRREEYDVLDKRRGRDPEMGGKPRRKNPQEGLYNELQKDKMAEAYSEIGMKGERRRGKGHDGLYQGLSTATKDTYDALHMQALPPR
B7: anti-BCMA CAR of recombinant lentivirus LV 13 (SEQ ID NO: 277) (receptor)
chain: EVQLLESGGGLVQPGGSLRLSCAASGFTFDRYAMSWFRQAPGKEREGVSAISTSGDSTYYADSVKGRFTISRDNSKNTLYLQMNSLRAEDTAVYYCAVLDEEAGAEGGYWGQGTQVTVSSTTTPAPRPPTPAPTIASQPLSLRPEACRPAAGGAVHTRGLDFACDIYIWAPLAGTCGVLLLSLVITLYCKRGRKKLLYIFKQPFMRPVQTTQEEDGCSCRFPEEEEGGCELRVKFSRSADAPAYQQGQNQLYNELNLGRREEYDVLDKRRGRDPEMGGKPRRKNPQEGLYNELQKDKMAEAYSEIGMKGERRRGKGHDGLYQGLSTATKDTYDALHMQALPPR
notes: also called LV 13.1 to LV 13.9
B8: anti-BCMA CAR of recombinant lentivirus LV 10 (SEQ ID NO: 274) (receptor)
chain: EVQLLESGGGLVQPGGSLRLSCAASGFTFESEAMSWYRQAPGKERELVSVITSEGSTYYADSVKGRFTISRDNSKNTLYLQMNSLRAEDTAVYYCAHIEWETRLNWGQGTQVTVSSTTTPAPRPPTPAPTIASQPLSLRPEACRPAAGGAVHTRGLDFACDIYIWAPLAGTCGVLLLSLVITLYCKRGRKKLLYIFKQPFMRPVQTTQEEDGCSCRFPEEEEGGCELRVKFSRSADAPAYQQGQNQLYNELNLGRREEYDVLDKRRGRDPEMGGKPRRKNPQEGLYNELQKDKMAEAYSEIGMKGERRRGKGHDGLYQGLSTATKDTYDALHMQALPPR
B9: anti-BCMA CAR of recombinant lentivirus LV 5 (SEQ ID NO: 263) (receptor)
chain: QVQLVESGGGLVKPGGSLRLSCAASGFTFSDYYMSWIRQAPGKGLEWVSYISSSGSTIYYADSVKGRFTISRDNAKNSLYLQMNSLRAEDTAVYYCARDQGNYGVDVWGQGTTVTVSSGGGGSGGGGSGGGGSGGGGSDIQMTQSPSTLSASVGDRVTITCRASQSISSWLAWYQQKPGKAPKLLIYEASSLESGVPSRFSGSGSGTEFTLTISSLQPDDFATYYCQQSDSHPITFGGGTKVEIKTTTPAPRPPTPAPTIASQPLSLRPEACRPAAGGAVHTRGLDFACDIYIWAPLAGTCGVLLLSLVITLYCKRGRKKLLYIFKQPFMRPVQTTQEEDGCSCRFPEEEEGGCELRVKFSRSADAPAYQQGQNQLYNELNLGRREEYDVLDKRRGRDPEMGGKPRRKNPQEGLYNELQKDKMAEAYSEIGMKGERRRGKGHDGLYQGLSTATKDTYDALHMQALPPR
notes: also called LV 5.1 to LV 5.9
B10: anti-BCMA CAR of recombinant lentivirus LV 7 (SEQ ID NO: 268) (receptor)
chain: DIQMTQSPSSLSASVGDRVTITCRASQSISSYLNWYQQKPGKAPKLLIYAASSLQSGVPSRFSGSGSGTDFTLTISSLQPEDFATYYCQQAHSSPITFGGGTKVEIKGGGGSGGGGSGGGGSGGGGSEVQLLESGGGLVQPGGSLRLSCAASGFTFSNYAMSWVRQAPGKGLEWVSAISGSGGSTYYADSVKGRFTISRDNSKNTLYLQMNSLRAEDTAVYYCARPGDGYYEGVYFDYWGQGTLVTVSSTTTPAPRPPTPAPTIASQPLSLRPEACRPAAGGAVHTRGLDFACDIYIWAPLAGTCGVLLLSLVITLYCKRGRKKLLYIFKQPFMRPVQTTQEEDGCSCRFPEEEEGGCELRVKFSRSADAPAYQQGQNQLYNELNLGRREEYDVLDKRRGRDPEMGGKPRRKNPQEGLYNELQKDKMAEAYSEIGMKGERRRGKGHDGLYQGLSTATKDTYDALHMQALPPR
B11: anti-BCMA CAR of recombinant lentivirus LV 3 (SEQ ID NO: 259) (receptor)
chain: QVQLVESGGGVVQPGRSLRLSCAASGFTFSSYGMHWVRQAPGKGLEWVAVISYEGSNKYYADSVKGRFTISRDNSKNTLYLQMNSLRAEDTAVYYCARELGDGMDVWGQGTTVTVSSGGGGSGGGGSGGGGSGGGGSEIVLTQSPATLSLSPGERATLSCRASQSVSSYLAWFQQKPGQAPRLLIYDASNRATGIPARFSGSGSGTDFTLTISSLEPEDFAVYYCQQRVDLWTFGGGTKVEIKTTTPAPRPPTPAPTIASQPLSLRPEACRPAAGGAVHTRGLDFACDIYIWAPLAGTCGVLLLSLVITLYCKRGRKKLLYIFKQPFMRPVQTTQEEDGCSCRFPEEEEGGCELRVKFSRSADAPAYQQGQNQLYNELNLGRREEYDVLDKRRGRDPEMGGKPRRKNPQEGLYNELQKDKMAEAYSEIGMKGERRRGKGHDGLYQGLSTATKDTYDALHMQALPPR
notes: also called LV 3.1 to LV 3.9
B12: anti-BCMA CAR of recombinant lentivirus LV 18 (SEQ ID NO: 283) (receptor)
chain: EVQLLESGGGLVQPGGSLRLSCAASGFTFSSEGMSWVRQAPGKERELVSAISGSGDHTYYADSVRGRFTISRDNSKNTLYLQMNSLRAEDTAVYYCNALEGGPTTAIQPGGPDYWGQGTQVTVSSTTTPAPRPPTPAPTIASQPLSLRPEACRPAAGGAVHTRGLDFACDIYIWAPLAGTCGVLLLSLVITLYCKRGRKKLLYIFKQPFMRPVQTTQEEDGCSCRFPEEEEGGCELRVKFSRSADAPAYQQGQNQLYNELNLGRREEYDVLDKRRGRDPEMGGKPRRKNPQEGLYNELQKDKMAEAYSEIGMKGERRRGKGHDGLYQGLSTATKDTYDALHMQALPPR
B13: anti-BCMA CAR of recombinant lentivirus LV 11 (SEQ ID NO: 275) (receptor)
chain: EVQLLESGGGLVQPGGSLRLSCAASGFTFDEYTMHWFRQAPGKEREFVSAISGGGSETYYADSVKGRFTISRDNSKNTLYLQMNSLRAEDTAVYYCAAGGEEAGVGYWGQGTQVTVSSTTTPAPRPPTPAPTIASQPLSLRPEACRPAAGGAVHTRGLDFACDIYIWAPLAGTCGVLLLSLVITLYCKRGRKKLLYIFKQPFMRPVQTTQEEDGCSCRFPEEEEGGCELRVKFSRSADAPAYQQGQNQLYNELNLGRREEYDVLDKRRGRDPEMGGKPRRKNPQEGLYNELQKDKMAEAYSEIGMKGERRRGKGHDGLYQGLSTATKDTYDALHMQALPPR

molecular target: T1, recombinant, phycoerythrin (PE) …; assay: flow cytometry of transduced PBMCs stained with BCMA-PE (PE-labeled BCMA extracellular domain-Fc)
Method: 5×10⁵ human PBMCs were plated in each well of a 24-well plate. Cells were transduced with recombinant lentiviruses LV 1 to LV 19 at a MOI 2 based on the Jurkat functional titer, or a 0.5 mL volumetric transduction if MOI 2 was not achievable. Seven days post-transduction, PBMCs were harvested and stained with BCMA-PE and analyzed by flow cytometry to assess the percentage of anti-BCMA CAR expressing cells. FIG. 2B.

**Q.** Does B1 bind?
**A.** binds

**Q.** Does B2 bind?
**A.** binds

**Q.** Does B3 bind?
**A.** binds

**Q.** Does B4 bind?
**A.** binds

**Q.** Does B5 bind?
**A.** binds

**Q.** Does B6 bind?
**A.** binds

**Q.** Does B7 bind?
**A.** binds

**Q.** Does B8 bind?
**A.** binds

**Q.** Does B9 bind?
**A.** binds

**Q.** Does B10 bind?
**A.** binds

**Q.** Does B11 bind?
**A.** binds

**Q.** Does B12 bind?
**A.** binds

**Q.** Does B13 bind?
**A.** binds
